Test results reported in patent publication US20250145711A1 (Janssen / Centocor, published 2025).
Where a chain is given by its changes, count along the chain named.

B1: PS3B926 (bispecific antibody, human IgG1, kappa, lambda, L234A L235A)
heavy 1: EVQLVESGGGLVKPGGSLRLSCAASGFTFSRYNMNWVRQAPGKGLEWVSSISTSSNYIYYADSVKGRFTFSRDNAKNSLDLQMSGLRAEDTAIYYCTRGWGPFDYWGQGTLVTVSSASTKGPSVFPLAPSSKSTSGGTAALGCLVKDYFPEPVTVSWNSGALTSGVHTFPAVLQSSGLYSLSSVVTVPSSSLGTQTYICNVNHKPSNTKVDKKVEPKSCDKTHTCPPCPAPEAAGGPSVFLFPPKPKDTLMISRTPEVTCVVVSVSHEDPEVKFNWYVDGVEVHNAKTKPREEQYNSTYRVVSVLTVLHQDWLNGKEYKCKVSNKALPAPIEKTISKAKGQPREPQVYTLPPSREEMTKNQVSLTCLVKGFYPSDIAVEWESNGQPENNYKTTPPVLDSDGSFLLYSKLTVDKSRWQQGNVFSCSVMHEALHNHYTQKSLSLSP
light 1: DIQMTQSPSSLSASVGDRVTITCRARQSIGTAIHWYQQKPGKAPKLLIKYASESISGVPSRFSGSGSGTDFTLTISSLQPEDFATYYCQQSGSWPYTFGQGTKLEIKRTVAAPSVFIFPPSDEQLKSGTASVVCLLNNFYPREAKVQWKVDNALQSGNSQESVTEQDSKDSTYSLSSTLTLSKADYEKHKVYACEVTHQGLSSPVTKSFNRGEC
heavy 2: not shown
light 2: not shown
notes: FAB-A: CD3B2183 (CD3W245); FAB-B: PSMB891
B2: PS3B928 (bispecific antibody, human IgG1, kappa, lambda, L234A L235A)
heavy 1: B1 heavy 1
light 1: B1 light 1
heavy 2: not shown
light 2: not shown
notes: FAB-A: CD3B2183 (CD3W245); FAB-B: PSMB892
B3: PS3B932 (bispecific antibody, human IgG1, kappa, lambda, L234A L235A)
heavy 1: B1 heavy 1
light 1: B1 light 1
heavy 2: EVQLVESGGGLVQPGGSLRLSCAASGFTFSSYAMSWVRQAPGKGLEWVSAISGGIGSTYYADSVKGRFTISRDNSKNTLWLQMNSLRAEDTAVYYCAKDGVGATPYYFDYWGQGTLVTVSSASTKGPSVFPLAPSSKSTSGGTAALGCLVKDYFPEPVTVSWNSGALTSGVHTFPAVLQSSGLYSLSSVVTVPSSSLGTQTYICNVNHKPSNTKVDKKVEPKSCDKTHTCPPCPAPEAAGGPSVFLFPPKPKDTLMISRTPEVTCVVVSVSHEDPEVKFNWYVDGVEVHNAKTKPREEQYNSTYRVVSVLTVLHQDWLNGKEYKCKVSNKALPAPIEKTISKAKGQPREPQVYTLPPSREEMTKNQVSLTCLVKGFYPSDIAVEWESNGQPENNYKTTPPVLDSDGSFFLYSRLTVDKSRWQQGNVFSCSVMHEALHNHYTQKSLSLSPG
light 2: QSVLTQPPSVSAAPGQKVTISCSGSSSNIGNNYVSWYQQLPGTAPKLLIYDNNKRPSGIPDRFSGSKSGTSATLGITGLQTGDEADYYCGTWDSSLSAYVFGTGTKVTVLGQPKAAPSVTLFPPSSEELQANKATLVCLISDFYPGAVTVAWKADSSPVKAGVETTTPSKQSNNKYAASSYLSLTPEQWKSHRSYSCQVTHEGSTVEKTVAPTECS
notes: FAB-A: CD3B2183 (CD3W245); FAB-B: PSMB895
B4: PS3B935 (bispecific antibody, human IgG1, kappa, lambda, L234A L235A)
heavy 1: B1 heavy 1
light 1: B1 light 1
heavy 2: B3 heavy 2 with I55S, W80Y, T91S
light 2: B3 light 2 with N31I, Y99V, T103G, V107L
notes: FAB-A: CD3B2183 (CD3W245); FAB-B: PSMB898
B5: PS3B925 (bispecific antibody, human IgG1, kappa, lambda, L234A L235A)
heavy 1: B1 heavy 1
light 1: B1 light 1
heavy 2: B3 heavy 2 with A23T, T28I, I55Y, S57A, T58P, S63T, W80Y, Y110D, T115I
light 2: B3 light 2 with Y50F
notes: FAB-A: CD3B2183 (CD3W245); FAB-B: PSMB899
B6: PS3B934 (bispecific antibody, human IgG1, kappa, lambda, L234A L235A)
heavy 1: B1 heavy 1
light 1: B1 light 1
heavy 2: B3 heavy 2
light 2: B3 light 2 with N31I, Y99V, T103G, V107L
notes: FAB-A: CD3B2183 (CD3W245); FAB-B: PSMB896
B7: PS3B933 (bispecific antibody, human IgG1, kappa, lambda, L234A L235A)
heavy 1: B1 heavy 1
light 1: B1 light 1
heavy 2: B3 heavy 2 with I55S, W80Y, T91S
light 2: B3 light 2
notes: FAB-A: CD3B2183 (CD3W245); FAB-B: PSMB897
B8: PS3B915 (bispecific antibody, human IgG1, lambda, L234A L235A)
heavy 1: QVQLQQSGPRLVRPSQTLSLTCAISGDSVFNNNAAWSWIRQSPSRGLEWLGRTYYRSKWLYDYAVSVKSRITVNPDTSRNQFTLQLNSVTPEDTALYYCARGYSSSFDYWGQGTLVTVSSASTKGPSVFPLAPSSKSTSGGTAALGCLVKDYFPEPVTVSWNSGALTSGVHTFPAVLQSSGLYSLSSVVTVPSSSLGTQTYICNVNHKPSNTKVDKKVEPKSCDKTHTCPPCPAPEAAGGPSVFLFPPKPKDTLMISRTPEVTCVVVSVSHEDPEVKFNWYVDGVEVHNAKTKPREEQYNSTYRVVSVLTVLHQDWLNGKEYKCKVSNKALPAPIEKTISKAKGQPREPQVYTLPPSREEMTKNQVSLTCLVKGFYPSDIAVEWESNGQPENNYKTTPPVLDSDGSFLLYSKLTVDKSRWQQGNVFSCSVMHEALHNHYTQKSLSLSPG
light 1: QSALTQPASVSGSPGQSITISCTGTSSNIGTYKFVSWYQQHPDKAPKVLLYEVSKRPSGVSSRFSGSKSGNTASLTISGLQAEDQADYHCVSYAGSGTLLFGGGTKLTVLGQPKAAPSVTLFPPSSEELQANKATLVCLISDFYPGAVTVAWKADSSPVKAGVETTTPSKQSNNKYAASSYLSLTPEQWKSHRSYSCQVTHEGSTVEKTVAPTECS
heavy 2: not shown
light 2: not shown
notes: FAB-A: CD3B891 (CD3B376 - K477); FAB-B: PSMB892
B9: PS3B919 (bispecific antibody, human IgG1, lambda, L234A L235A)
heavy 1: B8 heavy 1
light 1: B8 light 1
heavy 2: B3 heavy 2
light 2: B3 light 2
notes: FAB-A: CD3B891 (CD3B376 - K477); FAB-B: PSMB895
B10: PS3B921 (bispecific antibody, human IgG1, lambda, L234A L235A)
heavy 1: B8 heavy 1
light 1: B8 light 1
heavy 2: B3 heavy 2
light 2: B3 light 2 with N31I, Y99V, T103G, V107L
notes: FAB-A: CD3B891 (CD3B376 - K477); FAB-B: PSMB896
B11: PS3B922 (bispecific antibody, human IgG1, lambda, L234A L235A)
heavy 1: B8 heavy 1
light 1: B8 light 1
heavy 2: B3 heavy 2 with I55S, W80Y, T91S
light 2: B3 light 2 with N31I, Y99V, T103G, V107L
notes: FAB-A: CD3B891 (CD3B376 - K477); FAB-B: PSMB898
B12: PS3B912 (bispecific antibody, human IgG1, lambda, L234A L235A)
heavy 1: B8 heavy 1
light 1: B8 light 1
heavy 2: B3 heavy 2 with A23T, T28I, I55Y, S57A, T58P, S63T, W80Y, Y110D, T115I
light 2: B3 light 2 with Y50F
notes: FAB-A: CD3B891 (CD3B376 - K477); FAB-B: PSMB899
B13: PS3B920 (bispecific antibody, human IgG1, lambda, L234A L235A)
heavy 1: B8 heavy 1
light 1: B8 light 1
heavy 2: B3 heavy 2 with I55S, W80Y, T91S
light 2: B3 light 2
notes: FAB-A: CD3B891 (CD3B376 - K477); FAB-B: PSMB897

Target: T1, human PSMA on prostate cancer cell lines (22RV1, C4-2B) (human, UniProt Q04609 1-750)
T1 construct: also called PSMA-expressing cell lines
Test: flow cytometry on 22RV1 cells
Procedure: (§1) 22RV1 and C4-2B cells were plated at 50,000 cells per well in 50 μl of assay medium (RPMI, 10% HI FBS) in V bottom plates. Serial dilutions of antibodies were prepared in assay medium with 50 μl of antibody dilutions added to the plates containing cells. The plates were incubated for 60 min at 37° C. at which time 100 μl of staining buffer (Becton Dickinson Cat #554657) was added to all wells of each plate. The plates were centrifuged at 300×G for 5 minutes and the medium was removed from the wells. 200 μl of staining buffer was added to all wells of each plate. The plates were centrifuged at 300× G for 5 minutes and the medium was removed from the wells. 50 μl of 2 μg/ml AlexaFluor647-labeled goat anti-human Fc was added to all wells of the plates and the plates were incubated for 30 minutes at 4° C. 150 μl of staining buffer was added to all wells of each plate. The plates were centrifuged at 300× G for 5 minutes and the medium was removed from the wells.

T1 sequence (Q04609 whole entry): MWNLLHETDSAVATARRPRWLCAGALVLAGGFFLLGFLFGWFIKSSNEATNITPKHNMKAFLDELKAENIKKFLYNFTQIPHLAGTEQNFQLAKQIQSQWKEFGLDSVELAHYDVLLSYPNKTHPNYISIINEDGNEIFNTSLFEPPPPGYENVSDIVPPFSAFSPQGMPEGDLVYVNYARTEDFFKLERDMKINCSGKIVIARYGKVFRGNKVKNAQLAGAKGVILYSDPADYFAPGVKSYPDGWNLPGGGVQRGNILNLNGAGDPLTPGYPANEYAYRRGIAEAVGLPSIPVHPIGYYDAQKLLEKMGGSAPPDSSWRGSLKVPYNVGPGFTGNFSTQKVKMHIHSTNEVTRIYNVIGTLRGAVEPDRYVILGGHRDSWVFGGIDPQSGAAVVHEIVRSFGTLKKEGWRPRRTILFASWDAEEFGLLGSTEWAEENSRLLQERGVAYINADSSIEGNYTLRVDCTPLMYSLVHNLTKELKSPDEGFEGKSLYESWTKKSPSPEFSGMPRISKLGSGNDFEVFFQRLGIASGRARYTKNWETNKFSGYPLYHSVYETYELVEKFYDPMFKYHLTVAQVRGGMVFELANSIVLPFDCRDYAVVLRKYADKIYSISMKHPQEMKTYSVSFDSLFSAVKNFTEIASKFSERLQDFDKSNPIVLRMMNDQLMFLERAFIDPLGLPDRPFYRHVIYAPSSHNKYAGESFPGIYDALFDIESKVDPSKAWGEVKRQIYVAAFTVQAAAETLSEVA

Binder	EC50 [nM]
B1	2.9
B2	60
B3	48.7
B4	39.5
B5	21.2
B6	4.96
B7	60
B8	60
B9	24.9
B10	4.03
B11	34.7
B12	54
B13	60

Target: T1, human PSMA on prostate cancer cell …
Test: flow cytometry on C4-2B cells
Procedure: as §1

Binder	EC50 [nM]
B1	4.55
B2	60
B3	60
B4	8.22
B5	11.7
B6	11
B7	60
B8	60
B9	23.3
B10	6.44
B11	44.1
B12	36.8
B13	60

Target: T2, recombinant human PSMA (human, UniProt Q04609 44-750)
T2 construct: also called hu PSMA; prostate-specific membrane antigen
Test: SPR (Biacore 8K), antibody captured on anti-Fc, PSMA in solution
Procedure: The binding affinity of anti-PSMA to the recombinant human, cynomolgus or mouse PSMA was determined by surface plasmon resonance (SPR) using a Biacore 8K instrument\. […] The association and dissociation were monitored for 3 and 15 minutes, respectively, using a flow rate of 50 μL/min. Raw binding data was referenced by subtracting the analyte binding signals from blanks and analyzed using a 1:1 Langmuir binding model using the Biacore Insight evaluation software to obtain the kinetics which were used to calculate the binding affinity. The anti-PSMA were captured using an anti-human Fc antibody and the antigens were injected in solution.

T2 sequence (Q04609 44-750 limits assumed): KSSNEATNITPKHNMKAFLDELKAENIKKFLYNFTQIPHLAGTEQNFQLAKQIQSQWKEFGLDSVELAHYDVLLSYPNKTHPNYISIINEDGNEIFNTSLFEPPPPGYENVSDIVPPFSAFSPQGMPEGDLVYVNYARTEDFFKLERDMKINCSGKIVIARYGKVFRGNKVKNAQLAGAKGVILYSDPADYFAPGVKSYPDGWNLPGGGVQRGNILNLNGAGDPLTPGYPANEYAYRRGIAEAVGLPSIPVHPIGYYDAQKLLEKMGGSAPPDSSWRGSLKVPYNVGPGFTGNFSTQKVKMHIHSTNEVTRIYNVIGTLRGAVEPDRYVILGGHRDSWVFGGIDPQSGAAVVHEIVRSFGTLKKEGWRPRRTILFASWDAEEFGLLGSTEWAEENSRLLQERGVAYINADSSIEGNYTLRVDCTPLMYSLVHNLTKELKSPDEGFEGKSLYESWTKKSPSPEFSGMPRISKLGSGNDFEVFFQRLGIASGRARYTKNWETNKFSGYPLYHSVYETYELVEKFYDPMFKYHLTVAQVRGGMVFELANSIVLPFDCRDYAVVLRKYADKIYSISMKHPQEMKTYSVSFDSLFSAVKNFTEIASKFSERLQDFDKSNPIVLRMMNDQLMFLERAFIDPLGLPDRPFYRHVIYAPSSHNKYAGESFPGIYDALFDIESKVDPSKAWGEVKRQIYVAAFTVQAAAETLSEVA

Binder	Kd [nM]
B1	≤ 0.253
B2	2.37
B3	0.787
B4	0.454
B5	0.169
B6	≤ 0.0873
B7	1.44
B8	1.89
B9	0.823
B10	≤ 0.0864
B11	0.41
B12	0.174
B13	1.35
